Drawing on paper PMC7277838, this text covers luciferase activity of mink lung TGFβ1 reporter cells given heat-treated (80 °C, 10 min) DOC-insoluble fractions of ML-II fibroblasts for 1 substance.

For this test, the target named is latency-associated peptide (LAP) of TGFβ1 (human (endogenous in human skin fibroblasts)) (UniProt P01137).

For the substance “mature TGFβ1 ligand (from UniProt P01137 279-390)”, the luciferase activity of mink lung TGFβ1 reporter cells given heat-treated (80 °C, 10 min) DOC-insoluble fractions of ML-II fibroblasts was determined as 3 fold.
